The experiment concerns the target CD70 (human) (UniProt P32970). Nature of the experiment: cell-based or functional assay.

CD70 (human), sequence (P32970 whole entry): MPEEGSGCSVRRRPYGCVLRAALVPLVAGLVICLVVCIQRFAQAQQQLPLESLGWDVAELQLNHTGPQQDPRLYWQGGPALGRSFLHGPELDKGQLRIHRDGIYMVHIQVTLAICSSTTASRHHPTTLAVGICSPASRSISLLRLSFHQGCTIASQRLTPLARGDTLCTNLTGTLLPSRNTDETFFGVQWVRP

“anti-CD70 monoclonal antibody (HNE51) (Dako)” displayed an IgG synthesis by purified B cells stimulated with LPS (control) of 125 µg/mL.

Source of the values: patent US20070031863A1.
